Measurements published in paper PMC10566112.

Molecular target: dopamine D2 receptor labelled with mCherry (D2R-mCherry) (UniProt P14416)
Chain of UniProt P14416 (P14416 whole entry): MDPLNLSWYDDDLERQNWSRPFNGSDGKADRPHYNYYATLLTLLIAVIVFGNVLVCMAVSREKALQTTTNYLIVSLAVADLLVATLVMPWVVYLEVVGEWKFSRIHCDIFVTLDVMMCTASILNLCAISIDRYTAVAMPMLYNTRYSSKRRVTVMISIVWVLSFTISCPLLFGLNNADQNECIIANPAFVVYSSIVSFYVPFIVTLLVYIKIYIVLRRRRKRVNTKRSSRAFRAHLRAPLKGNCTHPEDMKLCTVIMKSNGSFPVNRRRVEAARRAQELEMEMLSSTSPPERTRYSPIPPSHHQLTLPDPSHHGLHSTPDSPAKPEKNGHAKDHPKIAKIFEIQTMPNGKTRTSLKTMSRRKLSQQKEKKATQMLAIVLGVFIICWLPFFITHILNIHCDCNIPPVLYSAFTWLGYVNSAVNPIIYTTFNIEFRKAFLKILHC

Gαi3β1γ2 heterotrimer (Gαi3-Citrine with Gβ1 and Gγ2) (from UniProt P08754 1-354; P62873 1-340; P59768 1-71) (complex)
intracellular cAMP level in HEK293 cells after stimulation of D2R with 1 μM sumanirole, as percent of control (stimulated nontransfected cells) (% of the control): 20

Gαi3β1γ9 heterotrimer (Gαi3-Citrine with Gβ1 and Gγ9) (from UniProt P08754 1-354; P62873 1-340; O14610 1-69) (complex)
intracellular cAMP level in HEK293 cells after stimulation of D2R with 1 μM sumanirole, as percent of control (stimulated nontransfected cells) (% of the control): 70.4

Gαi3β1γ10 heterotrimer (Gαi3-Citrine with Gβ1 and Gγ10) (from UniProt P08754 1-354; P62873 1-340; P50151 1-68) (complex)
intracellular cAMP level in HEK293 cells after stimulation of D2R with 1 μM sumanirole, as percent of control (stimulated nontransfected cells) (% of the control): 14.4
